Source: PMC3180432

Tests used:
[1] = biological target: B7-H1-Fc (mouse) (UniProt Q9EP73); assay: SPR; BIAcore 2000, CM5 chip, ligand immobilised by amine coupling, analyte protein injected at different molarities at 10 uL/min, HBS (0.01 M Hepes pH 7.4, 0.15 M NaCl, 0.005% P20), 25°C
[2] = biological target: B7.1-Fc (mouse) (UniProt Q00609); assay: as above

Substance	Kd [1] [nM]	Kd [2] [nM]
PD-1-Fc (from UniProt Q02242 25-169) (Fc fusion)	820	–
B7.1-Fc (from UniProt Q00609 38-246) (Fc fusion)	380	–
B7-H1-Fc (from UniProt Q9EP73 19-239) (Fc fusion)	–	1070
